T1: mouse HIDE1 (mouse, UniProt Q75VT8 22-222)
T1 construct: Endogenous on EL4, YAC-1, J774A.1/J774A.2 cells; also called AB124611; mHIDE1
T1 sequence: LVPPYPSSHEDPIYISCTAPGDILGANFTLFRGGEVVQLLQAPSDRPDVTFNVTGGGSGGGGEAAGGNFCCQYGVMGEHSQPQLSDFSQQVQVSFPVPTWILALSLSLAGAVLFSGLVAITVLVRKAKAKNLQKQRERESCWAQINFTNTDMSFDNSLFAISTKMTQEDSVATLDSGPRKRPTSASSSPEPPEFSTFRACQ

T2: human HIDE1 (human, UniProt A8MVS5 20-230)
T2 construct: Endogenous on U937, HL-60, THP-1 cells, blood monocytes, AML blasts and dendritic cells; also called C19orf38; hHIDE1
T2 sequence: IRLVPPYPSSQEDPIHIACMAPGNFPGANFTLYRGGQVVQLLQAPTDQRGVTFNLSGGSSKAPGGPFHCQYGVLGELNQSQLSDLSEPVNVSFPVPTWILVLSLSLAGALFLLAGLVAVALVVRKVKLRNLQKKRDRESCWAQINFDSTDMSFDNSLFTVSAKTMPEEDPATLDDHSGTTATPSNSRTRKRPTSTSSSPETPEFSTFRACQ


Experiments:
mouse HIDE1 = target: T1, mouse HIDE1; assay: FACS on 293T-moHIDE1 cells, human IgG4
Method: (§1) FACS screening of reformatted IgG4 antibodies: The cell lines described in paragraph [001066] (“FACS screening of PPE”) were mixed with FACS buffer containing the purified anti-HIDE1 IgGs or isotype controls. […] Cells were washed again and fluorescence was detected using an Intellicyt HTFC screening system (Intellicyt). Data were analyzed using FCS Express (DeNovo) and plotted for affinity calculations (KD) in GraphPad Prism (GraphPad Software, Inc.). Note that each anti-HIDE1 antibody was tested over a titration range from 0-80 μg/mL.
(§2) Overview of FACS binding results for human IgG4 antibodies reformatted from Fab screening hits. […] IgGs from the same H-CDR3 family are indicated by the same color, either blue or green. CPA.12.003 & CPA.12.008 have identical heavy chain CDR-3 regions and minor differences in framework regions or other CDRs. The same holds for CPA.12.004 & CPA.12.013. N.B. not binding.

human HIDE1 = target: T2, human HIDE1; assay: FACS titration on 293T-huHIDE1 cells, human IgG4 (preliminary FACS KD)
Method: as §1, §2

[1] = target: T3, HIDE1_HH-1 (Human ECD + human IgG1 Fc mutated C220S at hinge), without SP (human); assay: SPR (ProteOn), Fab PPE over captured HIDE1-HH-1, 1:1 fit
T3 construct: Batch #280 in the Serotec and phage display work; also called HIDE1 hECD-hIg; HIDE1 (H:H) recombinant Fc fusion protein
Method: Preliminary Fab binding kinetics were determined using Fab PPEs produced as described in paragraph [001064] (“Fab PPE production”)[001064]. Studies were conducted using Biacore 3000 and ProteOn XPR 36 instruments at 22° C.
A high density goat anti-human Fc antibody (Invitrogen) was immobilized by standard amine coupling over all lanes of a GLC chip using a ProteOn XPR 36 biosensor (Biorad). This surface was used to capture the recombinant HIDE1-H:H fusion protein (GenScript Lot 393383-21, batch #280) or a control Fc fusion protein (CD155, Sino Biologicals) in the vertical flow-cell direction at a concentration of ˜0.5 μg/mL for 90 seconds.

T3 sequence (chain, as listed by the source C220S C220S limits assumed): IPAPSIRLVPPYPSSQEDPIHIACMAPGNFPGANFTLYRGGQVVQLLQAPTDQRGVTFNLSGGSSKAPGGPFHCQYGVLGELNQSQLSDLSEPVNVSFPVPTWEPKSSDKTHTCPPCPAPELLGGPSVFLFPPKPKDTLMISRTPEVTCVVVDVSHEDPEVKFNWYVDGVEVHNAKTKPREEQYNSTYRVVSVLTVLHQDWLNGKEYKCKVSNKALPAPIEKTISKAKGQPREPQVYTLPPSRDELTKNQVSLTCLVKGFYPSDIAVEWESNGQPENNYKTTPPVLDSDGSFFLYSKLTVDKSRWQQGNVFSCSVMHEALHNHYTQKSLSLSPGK

Kd (human HIDE1) | Kd [1] | koff [1] | kon [1] | Binder | binding result (mouse HIDE1)
1.3 nM |  |  |  | CPA.12.008 human IgG4 (antibody, V domains shown, also called CPA.12.008-H4) VH: QVQLQESGPGLVTPSETLSLTCTVSGGSISSVSYYWGWVRQPPGKGLEWIGSIYYSGTTAHNPSLKSRVTMAVDTSKNQFSLSLSSVTAADTAVYFCARGWRYYEDYYFDHWGQGTLVTVSS VL: AIRMTQSPSSLSASVGDRVTITCQASQDISNYLNWYQQKPGKAPKSLIYAASSLQSGVPSKFSGSGSGTDFTLTISSLQPEDFATYYCQQYYSYPLTFGGGTKVEIKR | no binding (tested: titration 0-80 µg/mL)
1.4 nM |  |  |  | CPA.12.004 human IgG4 (antibody, V domains shown, also called CPA.12.004-H4) VH: EVQLVETGGGLIQPGRSLRLSCVASDFRFSNHAMHWVRQAPGKELEWVAVISSDGSNRQYAYSVKGRFTISRDNSKNTLYLEMNILGPEDTAVYFCVRSHLGPEWYYGMDVWGQGTTVTVSS VL: DIQMTQSPSSLSTSVGDSVTITCRSSQSISTFLSWFQHKPGKAPNLLIYDASSLQSGVPSRFSGSGSGTDFTLTISSLQPEDFATYYCQQSDYLPFTFGPGTKVEIKR | no binding (tested: titration 0-80 µg/mL)
2.6 nM |  |  |  | CPA.12.013 human IgG4 (antibody, V domains shown, also called CPA.12.013-H4) VH: EVQLVETGGGLIQPGRSLRLSCVASDFRFSNHAMHWVRQAPGKELEWVAVISSDGSNRQYAYSVKGRFTISRDNSKNTLYLEMNILGPEDTAVYFCVRSHLGPEWYYGMDVWGQGTTVTVSS VL: DIQMTQSPSSLSASVGDRVTITCQASHDIRKFLNWYQQHPGKAPKLLIYDAAYSEIGVPSRFSGGGSGTDFTFTINNLQPDDFATYYCQQYESLPFTFGPGTKVDIKR | no binding (tested: titration 0-80 µg/mL)
1.7 nM |  |  |  | CPA.12.009 human IgG4 (antibody, V domains shown, also called CPA.12.009-H4) VH: QMQLVQSGAEVKKPGASVKVSCKASGYTFTTHAFSWVRQAPGLGLEWMGWISTYNGNTKYEQKFQGRVTLTTDSSTNTAYMELRSLRSDDTAVYYCVRDSRAFDVWGQGTMVTVSS VL: DIQLTQSPSFLSASVGDRVTITCRASQGINSYLAWYQQKPGAAPKLLIYAASTLQSGVPSRFSGSGSGTEFTLTISSLQPEDFATYYCQQLNTYPLIFGQGTRLEIKR | no binding (tested: titration 0-80 µg/mL)
13 nM |  |  |  | CPA.12.014 human IgG4 (antibody, V domains shown, also called CPA.12.014-H4) VH: QVTLKESGPALVTPTQNLTLTCTVSGGSISSSSYYWGWIRQPPGKGLEWIGSIYYSGSTYYNPSLKSRVTISVDTSKNQFSLKLSSVTAADTAVYYCARRRNSSGWFYFDYWGQGTLVTVSS VL: QSVLTQPPSVSGAPRQRVTISCSGSRSNIGDNAVNWYQHPPGKAPKLLIYYDDLLPSGVSDRFSGSKSGTSASLAISGLQSEDEADYYCATWDDSLNGHVFGTGTKLTVLG | no binding (tested: titration 0-80 µg/mL)

More lines, now with the values behind:

Binder | Kd (human HIDE1) | Kd [1] | koff [1] | kon [1] | binding result (mouse HIDE1)
CPA.12.007 human IgG4 (antibody, V domains shown, also called CPA.12.007-H4) VH: EVQLVESGGGVVQPGESLRLSCAASGFTFSSYGFHWVRQSPGEGLEWLAVISYDGTSKSYADSVKGRFTVSRDNSKETLYLQLSSLRREDTALYYCARDTWGYYYGMDVWGQGTTVTVSS VL: DIQMTQSPSFLSGSVGDRVSISCRASQDIRSHLAWYQRKPGEAPKLLIYTASSLQGGVPLRFSGSGSGTEFTLTISSLQPEDSATYYCQHLHLYPLTFGGGTKLEIKR | 14 nM |  |  |  | no binding (tested: titration 0-80 µg/mL)
CPA.12.006 human IgG4 (antibody, V domains shown, also called CPA.12.006-H4) VH: EVQLVESGGGVVQPGRSLRLSCAASGFTFSSFAMHWVRQAPGKGPEWLGIILYEGGHVVYADSVRGRLTISRDNSKNTLYLQMDSLRDEDTAVYYCAKGFYHAFDVWGQGTMVTVSS VL: QAVLTQPASLSASPGASASLTCTLRSGINVGTYRIYWYQQKPGSPPQYLLRYKSDSDKQQGSGVPSRFSGSKDASANAGILLISGLQSEDEADYYCMIWHSSAWVFGGGTQLTVLG | 2.5 nM |  |  |  | no binding (tested: titration 0-80 µg/mL)
CPA.12.005 human IgG4 (antibody, V domains shown, also called CPA.12.005-H4) VH: QVQLVESGGGVVQPGRSLRVSCAVSGFTFSSYGMHWVRQAPGGGLEWVAVMSYEGSFRHYADSVKGRFTISRDNSKNTLFLQMDSLRAEDTAVYYCARDRPAGYTSGWGILDYWGQGTLVTVSS VL: EIVMTQSPATLSLSPGERATLSCRASQSVSSYLAWYQQKPGQAPRLLIYDASNRATGIPARFSGSGSGTDFTLTISSLEPEDFAVYYCQQRSNWPLTFGGGTKVDIKR | 4 nM |  |  |  | no binding (tested: titration 0-80 µg/mL)
CPA.12.001 human IgG4 (antibody, V domains shown, also called CPA.12.001-H4) VH: QVQLVESGGGLVQPGRSLRLSCAASGFTFSSYGMHWVRQAPGKGLEWVAVISYDGSNKYYADSVKGRFTISRDNSKNTLYLQMNSLRAEDTAVYYCASEGVDFWSGLDYWGQGTLVTVSS VL: QSALTQPRSASGSAGQSVTISCTGTSSDVGGHNYVSWYQQFPGKAPKLLIYEVSHRPSGVPDRFSGSKSGNTASLTVSGLQAEDEADYYCSSYADLNNLMFGGGTKLTVLG | 61 nM |  |  |  | no binding (tested: titration 0-80 µg/mL)
CPA.12.012 human IgG4 (antibody, V domains shown, also called CPA.12.012-H4; CPA.12.0012-H4) VH: QVQLVESGGGVVQPGRSLRLSCAASGFTFSSYAMHWVRQAPGKGLEWVAVISYDGSNKYYADSVKGRFTISRDNSKNTLYLQMNSLRAEDTAVYYCARSSGSSWSNIAYWGQGTLVTVSS VL: QSVLTQPPSVSGAPGQRVTISCIGSSSNIGAGYDVHWYRQLPGTAPKLLIYDNTNRPSGVPDRFSASKSGISASLAITGLQAEDEADYYCQSYDSNLSGVFGGGTQLTVLG | 1.3 nM |  |  |  | no binding (tested: titration 0-80 µg/mL)
CPA.12.002 Fab (A02 S397-01.A08) (Fab, V domains shown, XOMA031 library Fab in periplasmic extract) VH: EVQLVESGGGLVQPGRSLRLSCAASGFTFSSYAMHWVRQVPGKGLEWVAVISYDGSNKYYADSVKGRFTISRDNSKNTLYLQMNSLRAEDTAVYYCAKPMYSSGWYPLGYWGQGTLVTVSS VL: DIVMTQTPLSLPVTPGQPASISCRSSQSPLDTDGNTYLDWYLQRPGQSPQLLIYTLSNRASGVPDRFSGSGSGTDFTLKISRVEAEDVGIYYCMQRIQYPLTFGPGTRLEIKR |  | 8 nM | 0.00083 s⁻¹ | 100000 M⁻¹ s⁻¹ | 
CPA.12.002 human IgG4 (antibody, V domains shown, also called CPA.12.002-H4) VH: EVQLVESGGGLVQPGRSLRLSCAASGFTFSSYAMHWVRQVPGKGLEWVAVISYDGSNKYYADSVKGRFTISRDNSKNTLYLQMNSLRAEDTAVYYCAKPMYSSGWYPLGYWGQGTLVTVSS VL: DIVMTQTPLSLPVTPGQPASISCRSSQSPLDTDGNTYLDWYLQRPGQSPQLLIYTLSNRASGVPDRFSGSGSGTDFTLKISRVEAEDVGIYYCMQRIQYPLTFGPGTRLEIKR | 6.4 nM |  |  |  | no binding (tested: titration 0-80 µg/mL)
CPA.12.003 human IgG4 (antibody, V domains shown, also called CPA.12.003-H4) VH: QVQLQESGPGLVTPSETLSLTCTVSGGSISSVSYYWGWVRQPPGKGLEWIGSIYYSGTTAHNPSLKSRVTMAVDTSKNQFSLSLSSVTAADTAVYFCARGWRYYEDYYFDHWGQGTLVTVSS VL: DIQMTQSPSTLSASVGDRVTITCRASQSINRWLAWYQQKPGKAPKILIYTASSLESGVPSRFSGSGSGTEFTLTISSLQPDDFATYYCQQYNSYPITFGQGTRLEIKR | 18 nM |  |  |  | no binding (tested: titration 0-80 µg/mL)
CPA.12.014 Fab (B12 S404-01.E06) (Fab, V domains shown, XOMA031 library Fab in periplasmic extract) VH: QVTLKESGPALVTPTQNLTLTCTVSGGSISSSSYYWGWIRQPPGKGLEWIGSIYYSGSTYYNPSLKSRVTISVDTSKNQFSLKLSSVTAADTAVYYCARRRNSSGWFYFDYWGQGTLVTVSS VL: QSVLTQPPSVSGAPRQRVTISCSGSRSNIGDNAVNWYQHPPGKAPKLLIYYDDLLPSGVSDRFSGSKSGTSASLAISGLQSEDEADYYCATWDDSLNGHVFGTGTKLTVLG |  | 37 nM | 0.0037 s⁻¹ | 99000 M⁻¹ s⁻¹ | 

— patent publication US20180305451A1 (COMPUGEN, published 2018)
